Blank lines part the entries; values can stand above or below the binder they belong to.
Molecular target: ACVR2A (Homo sapiens (Human), UniProt P27037)
Test: SPR, receptor-Fc dimer captured (avidity), single 80 nM injections

Chain of ACVR2A (P27037 26-118): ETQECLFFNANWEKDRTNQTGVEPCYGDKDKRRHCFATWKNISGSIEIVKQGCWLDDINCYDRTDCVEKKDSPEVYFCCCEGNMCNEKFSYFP

B1: ActivinB (protein)
chain 1: GLECDGRTNLCCRQQFFIDFRLIGWNDWIIAPTGYYGNYCEGSCPAYLAGVPGSASSFHTAVVNQYRMRGLNPGTVNSCCIPTKLSTMSMLYFDDEYNIVKRDVPNMIVEECGCA
chain 2: B1 chain 1
Kd: 0.053 nM

B4: BMP10 (protein)
chain 1: AKGNYCKRTPLYIDFKEIGWDSWIIAPPGYEAYECRGVCNYPLAEHLTPTKHAIIQALVHLKNSQKASKACCVPTKLEPISILYLDKGVVTYKFKYEGMAVSECGCR
chain 2: B4 chain 1
Kd: 1 nM

B5: BMP15 (protein)
chain 1: PENNQCSLHPFQISFRQLGWDHWIIAPPFYTPNYCKGTCLRVLRDGLNSPNHAIIQNLINQLVDQSVPRPSCVPYKYVPISVLMIEANGSILYKEYEGMIAESCTCR
chain 2: B5 chain 1
Kd: > 80 nM

Second part, the binder after the results:

Kd: 0.052 nM
B2: GDF11 (protein)
chain 1: GLDCDEHSSESRCCRYPLTVDFEAFGWDWIIAPKRYKANYCSGQCEYMFMQKYPHTHLVQQANPRGSAGPCCTPTKMSPINMLYFNDKQQIIYGKIPGMVVDRCGCS
chain 2: B2 chain 1

Kd: > 80 nM
B3: Nodal (protein)
chain 1: DRSQLCRKVKFQVDFNLIGWGSWIIYPKQYNAYRCEGECPNPVGEEFHPTNHAYIQSLLKRYQPHRVPSTCCAPVKTKPLSMLYVDNGRVLLDHHKDMIVEECGCL
chain 2: B3 chain 1
